# From publication PMC11150392, “Structure and mechanism of the K^+/H^+ exchanger KefC” (Nature Communications, 2024)
# B1: KefC WT*-GFP fusion [Escherichia coli] / itself (parent)
# chain: MDSHTLIQALIYLGSAALIVPIAVRLGLGSVLGYLIAGCIIGPWGLRLVTDAESILHFAEIGVVLMLFIIGLELDPQRLWKLRAAVFGCGALQMVICGGLLGLFCMLLGLRWQVAELIGMTLALSSTAIAMQAMNERNLMVTQMGRSAFAVLLFQDIAAIPLVAMIPLLATSSASTTMGAFALSALKVAGALVLVVLLGRYVTRPALRFVARSGLREVFSAVALFLVFGFGLLLEEVGLSMAMGAFLAGVLLASSEYRHALESDIEPFKGLLLGLFFIGVGMSIDFGTLLENPLRIVILLLGFLIIKIAMLWLIARPLQVPNKQRRWFAVLLGQGSEFAFVVFGAAQMANVLEPEWAKSLTLAVALSMAATPILLVILNRLEQSSTEEAREADEIDEEQPRVIIAGFGRFGQITGRLLLSSGVKMVVLDHDPDHIETLRKFGMKVFYGDATRMDLLESAGAAKAEVLINAIDDPQTNLQLTEMVKEHFPHLQIIARARDVDHYIRLRQAGVEKPERETFEGALKTGRLALESLGLGPYEARERADVFRRFNIQMVEEMAM
# Variants of: B1
# Assay: FSEC of DDM solubilized membranes after heating
# Parameters: unit not given here
# Conditions: with itself; 10 mins at 60 °C; 1 mM AMP; read off a plot
row,Variant,screen value
1,MDSHTLIQALIYLGSAALIVPIAVRLGLGSVLGYLIAGCIIGPWGLRLVTDAESILHFAEIGVVLMLFIIGLELDPQRLWKLRAAVFGCGALQMVICGGLLGLFCMLLGLRWQVAELIGMTLALSSTAIAMQAMNERNLMVTQMGRSAFAVLLFQDIAAIPLVAMIPLLATSSASTTMGAFALSALKVAGALVLVVLLGRYVTRPALRFVARSGLREVFSAVALFLVFGFGLLLEEVGLSMAMGAFLAGVLLASSEYRHALESDIEPFKGLLLGLFFIGVGMSIDFGTLLENPLRIVILLLGFLIIKIAMLWLIARPLQVPNKQRRWFAVLLGQGSEFAFVVFGAAQMANVLEPEWAKSLTLAVALSMAATPILLVILNRLEQSSTEEAREADEIDEEQPRVIIAGFGRFGQITGRLLLSSGVKMVVLDHDPDHIETLRKFGMKVFYGDATRMDLLESAGAAKAEVLINAIDDPQTNLQLTEMVKEHFPHLQIIARARDVDHYIRLRQAGVEKPERETFEGALKTGRLALESLGLGPYEAREAADVFRRFNIQMVEEMAM [chain 1 R543A],2.5
2,MDSHTLIQALIYLGSAALIVPIAVRLGLGSVLGYLIAGCIIGPWGLRLVTDAESILHFAEIGVVLMLFIIGLELDPQRLWKLRAAVFGCGALQMVICGGLLGLFCMLLGLRWQVAELIGMTLALSSTAIAMQAMAERNLMVTQMGRSAFAVLLFQDIAAIPLVAMIPLLATSSASTTMGAFALSALKVAGALVLVVLLGRYVTRPALRFVARSGLREVFSAVALFLVFGFGLLLEEVGLSMAMGAFLAGVLLASSEYRHALESDIEPFKGLLLGLFFIGVGMSIDFGTLLENPLRIVILLLGFLIIKIAMLWLIARPLQVPNKQRRWFAVLLGQGSEFAFVVFGAAQMANVLEPEWAKSLTLAVALSMAATPILLVILNRLEQSSTEEAREADEIDEEQPRVIIAGFGRFGQITGRLLLSSGVKMVVLDHDPDHIETLRKFGMKVFYGDATRMDLLESAGAAKAEVLINAIDDPQTNLQLTEMVKEHFPHLQIIARARDVDHYIRLRQAGVEKPERETFEGALKTGRLALESLGLGPYEARERADVFRRFNIQMVEEMAM [chain 1 N135A],89
3,MDSHTLIQALIYLGSAALIVPIAVRLGLGSVLGYLIAGCIIGPWGLRLVTDAESILHFAEIGVVLMLFIIGLELDPQRLWKLRAAVFGCGALQMVICGGLLGLFCMLLGLRWQVAELIGMTLALSSTAIAMQAMNERNLMVTQMGASAFAVLLFQDIAAIPLVAMIPLLATSSASTTMGAFALSALKVAGALVLVVLLGRYVTRPALRFVARSGLREVFSAVALFLVFGFGLLLEEVGLSMAMGAFLAGVLLASSEYRHALESDIEPFKGLLLGLFFIGVGMSIDFGTLLENPLRIVILLLGFLIIKIAMLWLIARPLQVPNKQRRWFAVLLGQGSEFAFVVFGAAQMANVLEPEWAKSLTLAVALSMAATPILLVILNRLEQSSTEEAREADEIDEEQPRVIIAGFGRFGQITGRLLLSSGVKMVVLDHDPDHIETLRKFGMKVFYGDATRMDLLESAGAAKAEVLINAIDDPQTNLQLTEMVKEHFPHLQIIARARDVDHYIRLRQAGVEKPERETFEGALKTGRLALESLGLGPYEARERADVFRRFNIQMVEEMAM [chain 1 R146A],86
4,MDSHTLIQALIYLGSAALIVPIAVRLGLGSVLGYLIAGCIIGPWGLRLVTDAESILHFAEIGVVLMLFIIGLELDPQRLWKLRAAVFGCGALQMVICGGLLGLFCMLLGLRWQVAELIGMTLALSSTAIAMQAMNERNLMVTQMGRSAFAVLLFQDIAAIPLVAMIPLLATSSASTTMGAFALSALKVAGALVLVVLLGRYVTRPALRFVARSGLREVFSAVALFLVFGFGLLLEEVGLSMAMGAFLAGVLLASSEYRAALESDIEPFKGLLLGLFFIGVGMSIDFGTLLENPLRIVILLLGFLIIKIAMLWLIARPLQVPNKQRRWFAVLLGQGSEFAFVVFGAAQMANVLEPEWAKSLTLAVALSMAATPILLVILNRLEQSSTEEAREADEIDEEQPRVIIAGFGRFGQITGRLLLSSGVKMVVLDHDPDHIETLRKFGMKVFYGDATRMDLLESAGAAKAEVLINAIDDPQTNLQLTEMVKEHFPHLQIIARARDVDHYIRLRQAGVEKPERETFEGALKTGRLALESLGLGPYEARERADVFRRFNIQMVEEMAM [chain 1 H259A],6.5

# The remaining lines, values ahead:
row,screen value,Variant
1,5.5,MDSHTLIQALIYLGSAALIVPIAVRLGLGSVLGYLIAGCIIGPWGLRLVTDAESILHFAEIGVVLMLFIIGLELDPQRLWKLRAAVFGCGALQMVICGGLLGLFCMLLGLRWQVAELIGMTLALSSTAIAMQAMNERNLMVTQMGRSAFAVLLFQDIAAIPLVAMIPLLATSSASTTMGAFALSALKVAGALVLVVLLGRYVTRPALRFVARSGLREVFSAVALFLVFGFGLLLEEVGLSMAMGAFLAGVLLASSEYRHALESDIEPFKGLLLGLFFIGVGMSIDFGTLLENPLRIVILLLGFLIIKIAMLWLIARPLQVPNKQRRWFAVLLGQGSEFAFVVFGAAQMANVLEPEWAKSLTLAVALSMAATPILLVILNRLEQSSTEEAREADEIDEEQPRVIIAGFGRFGQITGRLLLSSGVKMVVLDHDPDHIETLRKFGMKVFYGDATRMDLLESAGAAKAAVLINAIDDPQTNLQLTEMVKEHFPHLQIIARARDVDHYIRLRQAGVEKPERETFEGALKTGRLALESLGLGPYEARERADVFRRFNIQMVEEMAM [chain 1 E465A]
2,10,MDSHTLIQALIYLGSAALIVPIAVRLGLGSVLGYLIAGCIIGPWGLRLVTDAESILHFAEIGVVLMLFIIGLELDPQRLWALRAAVFGCGALQMVICGGLLGLFCMLLGLRWQVAELIGMTLALSSTAIAMQAMNERNLMVTQMGRSAFAVLLFQDIAAIPLVAMIPLLATSSASTTMGAFALSALKVAGALVLVVLLGRYVTRPALRFVARSGLREVFSAVALFLVFGFGLLLEEVGLSMAMGAFLAGVLLASSEYRHALESDIEPFKGLLLGLFFIGVGMSIDFGTLLENPLRIVILLLGFLIIKIAMLWLIARPLQVPNKQRRWFAVLLGQGSEFAFVVFGAAQMANVLEPEWAKSLTLAVALSMAATPILLVILNRLEQSSTEEAREADEIDEEQPRVIIAGFGRFGQITGRLLLSSGVKMVVLDHDPDHIETLRKFGMKVFYGDATRMDLLESAGAAKAEVLINAIDDPQTNLQLTEMVKEHFPHLQIIARARDVDHYIRLRQAGVEKPERETFEGALKTGRLALESLGLGPYEARERADVFRRFNIQMVEEMAM [chain 1 K81A]
3,74,MDSHTLIQALIYLGSAALIVPIAVRLGLGSVLGYLIAGCIIGPWGLRLVTDAESILHFAEIGVVLMLFIIGLELDPQRLWKLRAAVFGCGALQMVICGGLLGLFCMLLGLRWQVAELIGMTLALSSTAIAMQAMNERNLMVTQMGRSAFAVLLFQDIAAIPLVAMIPLLATSSASTTMGAFALSALKVAGALVLVVLLGRYVTRPALRFVARSGLREVFSAVALFLVFGFGLLLEEVGLSMAMGAFLAGVLLASSEYRHALESDIEPFKGLLLGLFFIGVGMSIDFGTLLENPLRIVILLLGFLIIKIAMLWLIARPLQVPNKQRRWFAVLLGQGSEFAFVVFGAAQMANVLEPEWAKSLTLAVALSMAATPILLVILNRLEQSSTEEAREADEIDEEQPAVIIAGFGRFGQITGRLLLSSGVKMVVLDHDPDHIETLRKFGMKVFYGDATRMDLLESAGAAKAEVLINAIDDPQTNLQLTEMVKEHFPHLQIIARARDVDHYIRLRQAGVEKPERETFEGALKTGRLALESLGLGPYEARERADVFRRFNIQMVEEMAM [chain 1 R401A]
